Source: US11649460B2, “DNA aptamers, method for inhibiting human galectin-1 and method of treating a mammal in need thereof” (priority 2020, dated 2023)

Tests used:
[1] = tested on: OVCAR-3 human ovarian adenocarcinoma cell line; test: SRB cell proliferation (cytotoxicity) assay, OVCAR-3
Text: The XLSTAT software was used to determine the IC50, TGI and LC50 values using the four-parameter logistic curve equation.

alkylated Gal1 = biological target: T1, alkylated Gal1 (Homo sapiens, UniProt P09382); test: Hemagglutination inhibition assay, alkylated Gal1; type: cell-based; details: alkylated Gal1 5 μM
T1 construct: 42; made in house; host or cells: E. coli strain M-15
T1 sequence (P09382 2-135): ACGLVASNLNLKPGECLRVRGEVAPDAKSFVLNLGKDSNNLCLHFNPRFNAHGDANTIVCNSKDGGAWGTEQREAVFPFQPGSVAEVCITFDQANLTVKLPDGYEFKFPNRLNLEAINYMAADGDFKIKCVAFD
Description: FIG. 15 illustrates the hemagglutination test with constant protein concentration at 5 μM and titration of aptamers SEQ ID NO.: 4 and SEQ ID NO.: 9. (a) Titration with aptamer 4. The hemagglutination of native Gal1 was inhibited from the concentration of 10 μM of this compound.
Hemagglutination assay was adopted to assess the capacity of SEQ ID NO.: 4 in inhibiting the lectin cross-linking aggregation of red blood cells (RBC), as previously described. Briefly, using a 96-well microplates appropriate amounts of 5 μM hGal1 were blended with 50 μL of aptamer in an increasing concentrations manner (0-40 μM) in PBS 1× buffer (pH 7.4). Following, 50 μL of 3% purified type B+ RBC in PBS. After 2 h of room temperature incubation, the plate was photographed and the hemagglutination area was estimated by area calculator Sketchandcalc™ and the results were expressed as relative agglutination.
It was observed that treating hGal-1 with Iodoacetamide, which covalently binds the acetamide group in all solvent accessible cysteines sulfhydryl side chain, abolishes the anti-hemagglutinating activity of the aptamer. According to the proposed binding mode, this happens because Cysteines 2, 88 and 130 interact directly with the aptamer and adding the acetamide group to their side chains would disrupt specific aptamer-protein interactions (FIG. 13C).

[2] = biological target: T2, hGal1-induced hemagglutination of red blood cells (Homo sapiens, UniProt P09382); test: Hemagglutination inhibition assay, native hGal1; type: cell-based
T2 construct: 42; made in house; host or cells: E. coli strain M-15
T2 sequence (P09382 2-135): as above
Method in brief: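 hGal1 (5 μM) was mixed with aptamer at 0-40 μM in PBS pH 7.4, then 3% type B+ human red blood cells were added and the mixture incubated 2 h at room temperature. Agglutination area was measured from plate photographs and expressed as relative agglutination.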

B1: CTGACACAGCAGGTTGGTGCCAACTAACACCATAAGAATACCCCGCTCCAAATAAGCCCACACGTAAACCCGAGTCGAGCAATCTCGAAAT (nucleic acid)
DNA: CTGACACAGCAGGTTGGTGCCAACTAACACCATAAGAATACCCCGCTCCAAATAAGCCCACACGTAAACCCGAGTCGAGCAATCTCGAAAT
modifications: chemistry not given here
notes: DNA aptamer that recognizes human galectin-1
Relative viability (%) of test items ([1]; 0.781 µM): 99.6% | Relative viability (%) of test items ([1]; 1.562 µM): 93.9% | Relative viability (%) of test items ([1]; 3.125 µM): 89.4% | Relative viability (%) of test items ([1]; 6.25 µM): 67.2% | Relative viability (%) of test items ([1]; 25 µM): 37.7% | Relative viability (%) of test items ([1]; 50 µM): −14.6% | Relative viability (%) of test items ([1]; 100 µM): −68.1% | TGI: Concentration for total inhibition of cell growth ([1]; OVCAR-3): 41.931 µM | IC50 ([1]; read-out: IC50: Concentration to inhibit 50% of cell growth, OVCAR-3): 14.2 µM | CC50 ([1]; read-out: LC50: Concentration for 50% cell death, OVCAR-3): 82.4 µM | effect on hemagglutination by alkylated Gal1 (alkylated Gal1): no observed effect | inhibition effect over RBC agglutination ([2]; 10 μM aptamer, 5 μM hGal1): approximately 75% | inhibitory effect on galectin-induced hemagglutination ([2]; native Gal1 5 μM): better effect | concentration from which hemagglutination was inhibited ([2]; native Gal1 5 μM, listed as aptamer 4): 10 µM
